{"source": "the supplement of paper PMC7877785", "assay": "self-splicing fitness, log relative to wild type (ln ratio); higher = more splicing; Tetrahymena group I intron in knt gene, E. coli kanamycin selection, DiMSum; sequences stand for … in CUCUCU…GGAGGGAAAAGUUAUCAGGCAUGCACCUGGUAGCUAGUCUUUAAACCAAUAGAUUGCAUCGGUUUAAAAGGCAAGACCGUCAAAUUGCGGGAAAGGGGUCAACAGCCGUUCAGUACCAAGUCUCAGGGGAAACUUUGAGAUGGCCUUGCAAAGGGUAUGGUAAUAAGCUGACGGACAUGGUCCUAACCACGCAGCCAAGUCCUAAGUCAACAGAUCUUCUGUUGAUAUGGAUGCAGUUCACAGACUAAAUGUCGGUCGGGGAAGAUGUAUUCUUCUCAUAAGAUAUAGUCGGACCUCUCCUUAAUGGGAGCUAGCGGAUGAAGUGAUGCAACACUGGAGCCGCUGGGAACUAAUUUGUAUGCGAAAGUAUAUUGAUUAGUUUUGGAGUACUCGUGGUCG", "in_short": "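A randomised library covering all eight P1ex-region intron nucleotides was built with the intron in the knt kanamycin-resistance gene on pET-22b(+) and held in E. coli BL21(DE3). Cells were grown overnight at 37°C or 30°C on LB agar, with or without 25 μg/mL kanamycin, plus 100 μg/mL carbenicillin, 50 μM IPTG and 0.2% rhamnose, and pooled colonies were amplicon-sequenced on an Illumina HiSeq 2500. DiMSum fitness is the error-weighted combination of wild-type-normalised replicate fold changes, kanamycin versus none.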", "note": "± gives the uncertainty stated by the source.", "data": [{"sequence": "ACUAAGCAAUAUUACGCUAG", "values": [{"measurement": "self-splicing fitness (ln)", "setting": "30 °C", "value": "-2.68 ± 0.14"}, {"measurement": "self-splicing fitness (ln)", "setting": "37 °C", "value": "-1.82 ± 0.17"}]}, {"sequence": "AAAUAGCAAUAUUACGUUGA", "values": [{"measurement": "self-splicing fitness (ln)", "setting": "30 °C", "value": "-3.3 ± 0.41"}, {"measurement": "self-splicing fitness (ln)", "setting": "37 °C", "value": "-0.771 ± 0.16"}]}, {"sequence": "CGGAAGCAAUAUUACGGUUG", "values": [{"measurement": "self-splicing fitness (ln)", "setting": "30 °C", "value": "-0.585 ± 0.059"}, {"measurement": "self-splicing fitness (ln)", "setting": "37 °C", "value": "-0.061 ± 0.085"}]}, {"sequence": "UGGUAGCAAUAUUACGGAAC", "values": [{"measurement": "self-splicing fitness (ln)", "setting": "37 °C", "value": "-0.88 ± 0.24"}]}, {"sequence": "UAUGAGCAAUAUUACGGGAG", "values": [{"measurement": "self-splicing fitness (ln)", "setting": "30 °C", "value": "-1.86 ± 0.19"}, {"measurement": "self-splicing fitness (ln)", "setting": "37 °C", "value": "-2.95 ± 0.24"}]}, {"sequence": "AUACAGCAAUAUUACGGGUC", "values": [{"measurement": "self-splicing fitness (ln)", "setting": "30 °C", "value": "-3.7 ± 0.21"}, {"measurement": "self-splicing fitness (ln)", "setting": "37 °C", "value": "-2.48 ± 0.19"}]}, {"sequence": "CCCUAGCAAUAUUACGCGAU", "values": [{"measurement": "self-splicing fitness (ln)", "setting": "30 °C", "value": "-3.74 ± 0.18"}, {"measurement": "self-splicing fitness (ln)", "setting": "37 °C", "value": "-2.77 ± 0.2"}]}, {"sequence": "CAGAAGCAAUAUUACGAGGC", "values": [{"measurement": "self-splicing fitness (ln)", "setting": "37 °C", "value": "-2.83 ± 0.4"}]}, {"sequence": "CUAUAGCAAUAUUACGGUCC", "values": [{"measurement": "self-splicing fitness (ln)", "setting": "30 °C", "value": "-3.69 ± 0.4"}, {"measurement": "self-splicing fitness (ln)", "setting": "37 °C", "value": "-2.56 ± 0.46"}]}, {"sequence": "GCACAGCAAUAUUACGGUCA", "values": [{"measurement": "self-splicing fitness (ln)", "setting": "30 °C", "value": "-0.62 ± 0.08"}, {"measurement": "self-splicing fitness (ln)", "setting": "37 °C", "value": "-0.276 ± 0.074"}]}, {"sequence": "CCAAAGCAAUAUUACGAAUC", "values": [{"measurement": "self-splicing fitness (ln)", "setting": "30 °C", "value": "-2.82 ± 0.33"}, {"measurement": "self-splicing fitness (ln)", "setting": "37 °C", "value": "-2.52 ± 0.34"}]}, {"sequence": "AUACAGCAAUAUUACGGCAU", "values": [{"measurement": "self-splicing fitness (ln)", "setting": "30 °C", "value": "-0.388 ± 0.083"}, {"measurement": "self-splicing fitness (ln)", "setting": "37 °C", "value": "0.525 ± 0.099"}]}, {"sequence": "CUAUAGCAAUAUUACGUCUG", "values": [{"measurement": "self-splicing fitness (ln)", "setting": "30 °C", "value": "0.043 ± 0.088"}, {"measurement": "self-splicing fitness (ln)", "setting": "37 °C", "value": "-0.099 ± 0.1"}]}, {"sequence": "GCCAAGCAAUAUUACGUUGC", "values": [{"measurement": "self-splicing fitness (ln)", "setting": "30 °C", "value": "-2.91 ± 0.13"}, {"measurement": "self-splicing fitness (ln)", "setting": "37 °C", "value": "-0.915 ± 0.15"}]}, {"sequence": "CCCCAGCAAUAUUACGGUGG", "values": [{"measurement": "self-splicing fitness (ln)", "setting": "30 °C", "value": "-4.09 ± 0.2"}, {"measurement": "self-splicing fitness (ln)", "setting": "37 °C", "value": "-1.86 ± 0.11"}]}, {"sequence": "UCAAAGCAAUAUUACGGACU", "values": [{"measurement": "self-splicing fitness (ln)", "setting": "30 °C", "value": "-3.52 ± 0.3"}, {"measurement": "self-splicing fitness (ln)", "setting": "37 °C", "value": "-2.27 ± 0.25"}]}, {"sequence": "AACAAGCAAUAUUACGGGCU", "values": [{"measurement": "self-splicing fitness (ln)", "setting": "30 °C", "value": "-1.82 ± 0.073"}, {"measurement": "self-splicing fitness (ln)", "setting": "37 °C", "value": "-1.15 ± 0.099"}]}, {"sequence": "GUAGAGCAAUAUUACGGCCA", "values": [{"measurement": "self-splicing fitness (ln)", "setting": "30 °C", "value": "-0.643 ± 0.098"}, {"measurement": "self-splicing fitness (ln)", "setting": "37 °C", "value": "-0.417 ± 0.17"}]}, {"sequence": "CGCAAGCAAUAUUACGUCAC", "values": [{"measurement": "self-splicing fitness (ln)", "setting": "30 °C", "value": "-3.45 ± 0.21"}, {"measurement": "self-splicing fitness (ln)", "setting": "37 °C", "value": "-2.12 ± 0.23"}]}, {"sequence": "CUUAAGCAAUAUUACGAUCU", "values": [{"measurement": "self-splicing fitness (ln)", "setting": "30 °C", "value": "-3.14 ± 0.37"}, {"measurement": "self-splicing fitness (ln)", "setting": "37 °C", "value": "-1.48 ± 0.31"}]}, {"sequence": "ACUAAGCAAUAUUACGGAGA", "values": [{"measurement": "self-splicing fitness (ln)", "setting": "30 °C", "value": "-1.36 ± 0.23"}, {"measurement": "self-splicing fitness (ln)", "setting": "37 °C", "value": "-3.35 ± 0.33"}]}, {"sequence": "ACACAGCAAUAUUACGCUCA", "values": [{"measurement": "self-splicing fitness (ln)", "setting": "30 °C", "value": "-0.416 ± 0.087"}, {"measurement": "self-splicing fitness (ln)", "setting": "37 °C", "value": "-0.203 ± 0.093"}]}, {"sequence": "UCCGAGCAAUAUUACGGGUC", "values": [{"measurement": "self-splicing fitness (ln)", "setting": "37 °C", "value": "-2.45 ± 0.26"}]}, {"sequence": "UCCGAGCAAUAUUACGACGU", "values": [{"measurement": "self-splicing fitness (ln)", "setting": "30 °C", "value": "-1.05 ± 0.07"}, {"measurement": "self-splicing fitness (ln)", "setting": "37 °C", "value": "0.0752 ± 0.11"}]}, {"sequence": "CUGUAGCAAUAUUACGCCUU", "values": [{"measurement": "self-splicing fitness (ln)", "setting": "30 °C", "value": "-3.46 ± 0.35"}, {"measurement": "self-splicing fitness (ln)", "setting": "37 °C", "value": "-2.74 ± 0.3"}]}, {"sequence": "AAACAGCAAUAUUACGCCGG", "values": [{"measurement": "self-splicing fitness (ln)", "setting": "30 °C", "value": "-2.36 ± 0.12"}, {"measurement": "self-splicing fitness (ln)", "setting": "37 °C", "value": "-1.67 ± 0.12"}]}, {"sequence": "GUAGAGCAAUAUUACGUGUA", "values": [{"measurement": "self-splicing fitness (ln)", "setting": "30 °C", "value": "-2.77 ± 0.2"}, {"measurement": "self-splicing fitness (ln)", "setting": "37 °C", "value": "-2.53 ± 0.28"}]}, {"sequence": "UGUUAGCAAUAUUACGUGAG", "values": [{"measurement": "self-splicing fitness (ln)", "setting": "30 °C", "value": "-1.02 ± 0.051"}, {"measurement": "self-splicing fitness (ln)", "setting": "37 °C", "value": "-0.331 ± 0.065"}]}, {"sequence": "UCACAGCAAUAUUACGUAGC", "values": [{"measurement": "self-splicing fitness (ln)", "setting": "30 °C", "value": "-2.87 ± 0.18"}, {"measurement": "self-splicing fitness (ln)", "setting": "37 °C", "value": "-1.34 ± 0.21"}]}, {"sequence": "GCCGAGCAAUAUUACGACUA", "values": [{"measurement": "self-splicing fitness (ln)", "setting": "30 °C", "value": "-0.948 ± 0.16"}, {"measurement": "self-splicing fitness (ln)", "setting": "37 °C", "value": "-2.21 ± 0.27"}]}, {"sequence": "UGUCAGCAAUAUUACGACAG", "values": [{"measurement": "self-splicing fitness (ln)", "setting": "30 °C", "value": "-1.62 ± 0.16"}, {"measurement": "self-splicing fitness (ln)", "setting": "37 °C", "value": "-0.615 ± 0.14"}]}, {"sequence": "AGCAAGCAAUAUUACGGGAC", "values": [{"measurement": "self-splicing fitness (ln)", "setting": "30 °C", "value": "-3.76 ± 0.33"}, {"measurement": "self-splicing fitness (ln)", "setting": "37 °C", "value": "-2.24 ± 0.29"}]}, {"sequence": "UCAGAGCAAUAUUACGUUGG", "values": [{"measurement": "self-splicing fitness (ln)", "setting": "30 °C", "value": "-3.05 ± 0.21"}, {"measurement": "self-splicing fitness (ln)", "setting": "37 °C", "value": "-2.9 ± 0.35"}]}, {"sequence": "ACACAGCAAUAUUACGAAGC", "values": [{"measurement": "self-splicing fitness (ln)", "setting": "30 °C", "value": "-4.18 ± 0.22"}, {"measurement": "self-splicing fitness (ln)", "setting": "37 °C", "value": "-2.8 ± 0.21"}]}]}
